Measured values taken from patent US20070003547A1 (published 2007).

Legend:
CD28Ig = CD28Ig (human, UniProt P10747 19-152); assay: ELISA, CD28Ig coated plates, anti-human k conjugate
chicken lysozyme = target: T1, chicken lysozyme (chicken, UniProt P00698 19-147); assay: fluorescence quench titration (FIG. 7 legend)
T1 construct: The assay paragraph says only 'lysozyme'; also called chicken lysozyme antigen

scorpion toxin = scorpion toxin (Centruroides noxius, UniProt P01495 17-82); assay: BIAcore SPR, toxin immobilized, antibody in solution, from kinetic rate constants

Row | Binder | Kd (scorpion toxin) [nM] | also measured
1 | Fab fragment comprised of mouse 9.3 variable domains and human constant domains (Fab, V domains shown) VH: EVKLQQSGPGLVTPSQSLSITCTVSGFSLSDYGVHWVRQSPGQGLEWLGVIWAGGGTNYNSALMSRKSISKDNSKSQVFLKMNSLQADDTAVYYCARDKGYSYYYSMDYWGQGTSVTVSS VL: DIELTQSPASLAVSLGQRATISCRASESVEYYVTSLMQWYQQKPGQPPKLLIFAASNVESGVPARFSGSGSGTNFSLNIHPVDEDDVAMYFCQQSRKVPYTFGGGTKLEIKR | – | EC50 (CD28Ig): 20 nM
2 | humanized D1.3 Fab (Fab, V domains shown) VH: QVQLQESGPGLVKPSETLSLTCTVSGGSVSGYGVNWIRQPPGKGLEWIGMIWGDGNTDYNSSLKSRVTISVDTSKNQFSLKLSSVTAADTAVYYCARERDYRLDYWGQGTLVTVSS VL: AIRMTQSPFSLSASVGDRVTITCRASGNIHNYLAWYQQKPAKAPKLFIYYTTTLADGVPSRFSGSGSGTDYTLTISSLQPEDFATYYCQHFWSTPRTFGGGTKVEIKR | – | Ka (chicken lysozyme): > 1e+08 M⁻¹
3 | (Fab)'2 fragment of mouse BCF2 IgG (other) chain 1: DIVLTQSPVSLAVSVGQRATISCKASQSVDFDGESYMNWYQQKPGQPPKLLIYVVSNLESGIPARFSGSGSGTDFTLNIHPVEEEDAATYYCQQSNEDPLTFGAGTNLELKR chain 2: EVQLQQSGPELVKPGASMKISCKVSGYSFTDHTMNWVKQSHGKNLELIGLINPFNGDATYKQKFTGKATLTVDRSSSTAFMELLSLTSEDSAVYYCARYGNYAMDYWGQGTSVTVSS | 10 | –
4 | humanized BCF2 Fab fragment (Fab, V domains shown) VH: EVQLVQSGAEVKKPGATVKISCKVSGYTFTDHTMNWVQQAPGKGLEWMGLINPFNGDATYKQKFQGRVTITADTSTDTAYMELSSLRSEDTAVYYCARYGNYAMDYWGQGTTVTVSS VL: DIVMTQTPLSLSVTPGQPASISCKASQSVDFDGESYMNWYLQKPGQPPQLLIYVVSNLESGVPDRFSGSGSGTDFTLKISRVEAEDVGVYYCQQSNEDPLTFGGGYKVEIKR | 140 | –
